Measured values as given in patent US20200223906A1 (Adimab, published 2020).

Experiments:
[1] = molecular target: RSV F protein of subtype A (strain A2) on recombinant mKate-RSV (respiratory syncytial virus subtype A …, UniProt P03420 26-574); experiment: cell-based or functional assay
[2] = molecular target: RSV F protein of subtype B (18537) on recombinant mKate-RSV (respiratory syncytial virus subtype B …, UniProt P13843 26-574); experiment: cell-based or functional assay
[3] = molecular target: RSV F protein of subtype A (strain A2) on recombinant mKate-RSV virus (Respiratory syncytial virus subtype A …, UniProt P03420 26-574); experiment: cell-based or functional assay
[4] = molecular target: RSV F protein of subtype B (18537) on recombinant mKate-RSV virus (Respiratory syncytial virus subtype B …, UniProt P13843 26-574); experiment: cell-based or functional assay
[5] = molecular target: T1, RSV F subtype B, furin-cleaved ectodomain stabilized in the prefusion conformation (DS-Cav1) (Respiratory syncytial virus subtype B); experiment: BLI, IgG on AHQ sensor, 100 nM antigen
T1 construct: extracellular domain; Trimeric soluble antigen; also called Prefusion subtype B

[6] = molecular target: T2, RSV F subtype B, furin-cleaved ectodomain stabilized in the postfusion conformation (F ΔFP) (Respiratory syncytial virus subtype B); experiment: BLI, IgG on AHQ sensor, 100 nM antigen
T2 construct: extracellular domain; Trimeric soluble antigen; also called Postfusion subtype B

Binder	Neut IC50 subtype A [1] [µg/mL]	Neut IC50 subtype B [2] [µg/mL]	Neut IC50 (µg/ml) subtype A [3] [µg/mL]	Neut IC50 (µg/ml) subtype B [4] [µg/mL]	Kd [5] [nM]	Kd [6] [nM]
ADI-19005 (antibody, V domains shown) VH: QVQLVQSGAEVKKPGASVRVSCKASGYTFTDYFMNWVRQAPGGGLEWMGWINPLSGVTKYAQQFQGSVTMTTDTSITTGYMELRSLRVDDTAVYYCASQSSPYTPGAMGVWGQGTTVTVSS VL: DIRMTQSPSSLSASVGDRVTITCRTSQSVSGYLSWYQQKPGKAPKLLIYAASNLYSGVPSRFSGSGSGTDFTLTITSLQPEDFATYFCQLNSGALFTFGPGTKVEIK	0.041	0.11				
ADI-19017 (antibody, V domains shown) VH: QVQLVQSGAEVKKPGASVRVTCKASGYTFTDYFMNWVRQAPGGGLEWMGWINPLSGVTKYAQQFQGSVTMTTDTSITTGYMELRSLRVDDTAVYYCASQSSPYTPGAMGVWGQGTTVTVSS VL: SYELIQLPSVSVSPGQTARITCSGDALPKQYAYWYQQKPGQAPVLVIYKDSERPSGIPERFSGSSSGTTVTLTISGVQAEDEADYYCQSADSSGTYPVVFGGGTKLTVL	1.56	0.795				
ADI-19009 (antibody, V domains shown) VH: QVQLVQSGAEVKRPGSSVKVSCKASGGTFRGYHISWVRQAPGQGLEWMGGIIHLFGTVSYAPKFQGRVTITADASTGTAHMELSSLTSDDTAIYYCARDAYEVWTGSYLPPFDYWGQGTLVTVSS VL: DIVMTQTPGTLSLSPGERVTLSCRASQTVTSSYLAWYQQKPGQAPRLLIYGAFTRATGIPDRFSGSGSGTDFTLTISRLEPEDFAVYYCQQYGSSFLTFGGGTKLEIK	0.062	0.066				
ADI-18950 (antibody, V domains shown, full-length IgG from yeast) VH: EVQLVESGPRLVRPSETLSLTCTVSGGFIKTSSYYWGWIRQPPGKGLEWIGSIYYAGTTYYNPSLQSRVTMSVDTSNNQFSLKLNSVTAADTAVYYCATAWTFDHWGQGTLVTVSS VL: EIVLTQSPATLSLSPGERATLSCRASQSLSNYLAWYQQKPGQAPRLLIYDASNRATGIPARFSGSGSGTDFTLTISSLEPEDFAVYYCQLRGHWPPTITFGQGTRLEIK			> 10	> 10	4.18	0.385
ADI-19004 (antibody, V domains shown) VH: QVQLVQSGAEVKKPGASVKVSCKTSGYTFSHFGVTWIRQAPGQGLEWLGWISAYNGNTDSADKLQGRLTMTTDTSTNTAYMELRSLRSDDTAVYYCARDPPASAAAMLDYWGQGTLVTVSS VL: DIQMTQSPLSLAVTLGQPASISCRSSQGLEYTDGNTYLSWFQQRPGQSPRRLIYKVSNRDSGVPDRFSGSGAGTDFTLRISRVEAEDVGVYYCMQGTHGRGISFGPGTKVDIK	0.02	0.128				
ADI-18997 (antibody, V domains shown) VH: QVQLQQWGAGLLKPSETLSLTCAVSGGYFINDNWSWIRQSPGKGLEWIGEISHSGSTNYNPSLKSRLTISVDTSRQQFSLKLSSVTAADSGVYYCARVHPSYDFGWRFFDFWGQGTLVTVSS VL: ETTLTQSPATLSVSPGDTATLSCRASQTISSNLAWYQQKPGQPPSLLIYGASNRATGIPDRFRGSGSGTEFTLTISSLQSEDFAVYYCQQYAYWPPYTFGQGTKVEIK	> 10	> 10				
ADI-18996 (antibody, V domains shown) VH: QVQLVQSGAEVKRPGASVKVSCKASEYAFTAHYLHWVRQAPDQGLEWMGWISPKSGGTNYAQKFHGRVSMTSDTSISTVYMELSSLTSDDTAVYYCARSSLVGASPNFDFWGQGTLVTVSS VL: QSVVTQPPSVSAAPGQRVTISCSGSSSNIGNNYVSWYQQLPGSTPKVLIYDNNQRPSGIPDRFSGSKSGTSATLAISGLQTGDEAVYYCGTWDASLSAAMVFGGGTKLTVL	> 10	> 10				
ADI-19010 (antibody, V domains shown) VH: EVQLVESGGGLVKPGGSLRLSCAASGFTFSSYSMNWVRQAPGKGLEWVSSISSSSSYIYYADSVKGRFTISRDNAKNSLYLQMNSLRAEDTAVYYCARDVQYSGYDSGYYFDYWGQGTLVTVSS VL: QPVLTQPPSVSGAPGQRVTISCTGSSSNIGAGYDVHWYQQLPGTAPKLLIYGNSNRPSGVPDRFSGSKSGTSASLAITGLQAEDEADYYCQSYDSSLSALYVFGTGTKVTVL	> 10	0.65				
ADI-19016 (antibody, V domains shown) VH: QVQLVESGGGLVKPGGSLRLSCVASGFTFSSYAMNWVRQAPGKGLDWVSSISAGSNFIDDADSVKGRFTISRDNARNSLFLQMNSLRAEDTAVYYCARIGYSSAHHYQYYMDVWGTGTTVTVSS VL: QSVLTQPPSVSGAPGQRVTISCTGSSSNIGAGYDVHWYQDLPGTAPKLLIYGNTNRPSGVPDRFSGSKSGASASLVITGLQAEDEADYYCQSYDKSLSGGYVFGTGTKVTVL	0.052	0.092				
ADI-19011 (antibody, V domains shown) VH: EVQLVESGGGVVQPGGSLRLSCAGSGFAFGSFAMHWVRQAPGKGLEWVAVISFDGKNTKYADSVKGRFTTSRDNSRNTLYLQMDSLRGDDTAIYYCATIRGIVAGLCDNWGQGTLVTVSS VL: QPVLTQSSSDSASLGASVKLTCTLSSGHRNYIIAWHQQQPGKAPRFLMKVEGSGSFTMGSGVPDRFSGSSSGADRYLTISNLQSEDEADYYCEAWDFNTGGVFGGGTQLTVL	> 10	6.24				
ADI-19008 (antibody, V domains shown) VH: EVQLVESGGGVVQPGRSLRLSCVASGFSFSAYGMHWVRQVPTKGLEWVAVISYDGRDIYYTDSVKGRFTISRDNSKNMLYLQMNSLRPEDRAVYYCARDPSLGYNNHYFDYWGQGTLVTVSS VL: EIVLTQSPATLSLSPGETATLSCRASQSVTGNLAWYQQKPGQAPRLLIYAASNRATGIPARFSGSGSGTDFTLTISSLEPEDFAVYFCQQRSNWPPMYSFGQGTKLEIK	8.29	> 10				
ADI-18888 (antibody, V domains shown, full-length IgG from yeast; also called Antibody Number 243; Ab # 243) VH: QVQLVESGGGVVQPGRSLRLSCVASGFSFSMHGMHWVRQAPGKGLEWVTAIWYDGSNKYYADSVKGRFTISRDNSRNTLYLQMNSLRAEDTAVYYCARDHASTPYYMDVWGKGTTVTVSS VL: ETTLTQSPGTLSLSPGESATLSCRTSQRISSTYLAWYRQKPGQAPRLLMYGASSRATGIPDRFSGSGSGTDFTLTISSLEPEDFALYYCQQYGSFPWTFGQGTKLEIK			> 10	> 10		1.16
ADI-18906 (antibody, V domains shown, full-length IgG from yeast) VH: EVQLVESGGGVVQPGRSLRLSCVASGFSFSMHGMHWVRQAPGKGLEWVTAIWYDGSNKYYADSVKGRFTISRDNSRNTLYLQMNSLRAEDTAVYYCARDHASTPYYMDVWGKGTTVTVSS VL: ETTLTQSPGTLSLSPGESATLSCRTSQRISSTYLAWYRQKPGQAPRLLMYGASSRATGIPDRFSGSGSGTDFTLTISSLEPEDFALYYCQQYGSFPWTFGQGTKVEIK			> 10	> 10		1.1
ADI-19002 (antibody, V domains shown) VH: EVQLVESGPGLVKPSETLSLTCTVSGGSVSGHYWSWIRQFPGKELEWIGHIYYIGTTNYNPSLKSRVIISLDTSKNQLSLKLSSVTAADTAVYYCARQFGYDKNTLSRLDFDYWGQGTLVTVSS VL: DIQMTQSPSSLSASVRDRVTITCRASQSISSYLNWYQQRPGKAPKLLIYSAFSLHSGVPSRFSGSGSETEFTLTISSLQPDDFATYYCQQSYSIPWTFGQGTKVEIK	2.89	4.51				
ADI-18951 (antibody, V domains shown, full-length IgG from yeast) VH: QVQLVQSGGGLVQPGGSLRLSCAASGFAFSDYTMSWVRQAPGKGLEWVSSVSGTGGTSYYADSVNGRFAISRENSKNTLFLQMDSLRAEDTATYYCAKDGLRDVSRVYYIDVWGKGTTVTVSS VL: QPVLTQPASVSGSPGQSITISCTGTSRDIGSHDSVSWYQQKPGKAPKLIIYAVRNRPSGLSNRFSGSKSGNTASLTISGLQTEDEGDYYCSSYRNGNALGVFGTGTKVTVL			3.4	> 10	5.35	1.13
ADI-18952 (antibody, V domains shown, full-length IgG from yeast) VH: QVQLVESGGGLVQPGGSLRLSCAASGFAFSNYAMSWVRQAPGKGLEWVSSVSGTGGTTYYADSVNGRFAISRENSRNTLYLQMDSLRVEDTATYYCAKDGLRDLSRVYYIDVWGKGATVTVSS VL: QSVLTQPASVSGSPGQSITISCTGTSRDIGSHDYVSWYQQHPGKAPKLIIYGVNNRPSGLSNRFSGSKSGNTASLTISGLQTEDEGDYYCSSYRNGNTLGVFGTGTKLTVL			1.59	2.75	1.01	0.633
ADI-19003 (antibody, V domains shown) VH: QVQLQESGPGLVKPSETLSLTCSVSGGSITNVNYYWGWIRQPPGKGLEWIGSIYYNGNTYYNPSLQSRVTMSVDTSKNHFSLRLTSVTAADTAVYFCAREGPNWELLNAFDIWGQGTTVTVSS VL: SYELTQPPSVSVAPGQTARITCGGNNIGSKNVHWYQQKPGQAPVLVVYEDTHRPSGIPERFSGSNSGNTATLTISRVEAGDEADYYCQVWDTSSDHVVFGGGTKLTVL	0.047	0.125				
ADI-19006 (antibody, V domains shown) VH: EVQLVESGGGLVKPGESVKLSCAASGFTITDSYMAWIRQSPGKGLEWLAYISSTSLFTDYTDSVKGRFIITRDNAENSLYLQMTSLTPADTGVYFCARAKTSYYFYALDVWGPGTLVTVSS VL: ETTLTQSPGTLSLSPGERATLSCRASQSVNNNYLAWFQHKPGQAPRLLIYNASNRAAGIPDRFSGSGSGTDFTLTISKLEPGDSAVYYCQRYGNSWPFGQGTKVEIK	4.89	5.06				
